Structures can show the parent of a compound that is named as a salt.
Columns and labels:
[1] = molecular target: T1, L-threonine dehydrogenase (TDH) (Escherichia coli, UniProt P07913); test: fluorimetric NADH formation assay, titration at […] L-Thr and […] NAD+; also affinity chromatography from E. coli lysate on immobilized compound […]; type: biochemical
T1 sequence (P07913 1-341): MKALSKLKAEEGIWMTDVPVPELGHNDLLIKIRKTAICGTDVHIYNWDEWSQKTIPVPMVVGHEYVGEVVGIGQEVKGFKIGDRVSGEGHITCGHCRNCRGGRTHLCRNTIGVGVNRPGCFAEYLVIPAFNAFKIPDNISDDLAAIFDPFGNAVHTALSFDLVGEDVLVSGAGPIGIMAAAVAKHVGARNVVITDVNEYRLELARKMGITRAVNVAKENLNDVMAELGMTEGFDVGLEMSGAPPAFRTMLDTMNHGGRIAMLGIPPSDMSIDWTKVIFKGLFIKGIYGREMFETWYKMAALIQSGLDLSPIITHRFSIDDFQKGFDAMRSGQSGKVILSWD

purified protein [2] = substrate: C[C@@H](O)[C@H](N)C(=O)O; test: purified protein; type: biochemical, Escherichia coli; details: NAD+; Zn2+ cooperative binding of L-Thr; pH 8.4; 25.0 °C
purified protein [3] = substrate: NC(=O)c1ccc[n+]([C@@H]2O[C@H](COP(=O)([O-])OP(=O)(O)OC[C@H]3O[C@@H](n4cnc5c(N)ncnc54)[C@H](O)[C@@H]3O)[C@@H](O)[C@H]2O)c1; test: purified protein; type: biochemical, Escherichia coli; details: Zn2+ non-cooperative binding; pH 8.4; 25.0 °C; varied: cofactor

In the case of `NCCc1c[nH]n(-c2ccccn2)c1=O` [compound 1, 4-(2-aminoethyl)-2-(pyridin-2-yl)-1,2-dihydro-3H-pyrazol-3-one dihydrochloride], the EC50 [1] is reported as 50 ± 10 µM.

B1: L-threonine dehydrogenase (TDH) (Escherichia coli K-12) (protein)
chain: T1 sequence (P07913 1-341)
Molecule B1 has a K0.5 (purified protein [2]) of 280 ± 10 µM, a Vmax (purified protein [2]) of 6 µM/min and a K0.5 (purified protein [3]) of 43 ± 3 µM. For the same molecule, the Vmax (purified protein [3]) was 3.42 µM/min.

From publication PMC12693531, “Cooperativity in Escherichia coli L-Threonine Dehydrogenase and Its Inhibition by an Antibacterial N-Pyridylpyrazolone Derivative” (International Journal of Molecular Sciences, 2025)
